Reference: publication PMC5559640

System: Pho7 DBD, Pho7(279-368) (Schizosaccharomyces pombe)
Test: EMSA
Conditions: EMSA: 50 mM Tris-HCl pH 7.4, 10% glycerol, 340 ng poly(dI-dC), 0.6-1 pmol DNA in 10 ul, about 50 mM NaCl and 0.02% Triton X-100 from 2 ul protein diluent …; for binding signal: 27 ng Pho7 DBD, 1 pmol DNA

Row | Sequence | binding signal [% DNA bound] | further results
1 | CAACAGGGGAATAGTCGCTGCTTGAAACATCCGGAAATAG (double strand) [pho1 site 1 40-bp DNA] | – | binding signal (fold affinity vs site 2 (N5)) (8.3-66 ng Pho7 DBD): 0.5
2 | CCGGAAATAGTTTTATTCGGAAATTAAAAACAAGTTTATGGCG (double strand) [pho1 site 2 43-bp DNA] | – | binding signal (fold affinity vs site 1 (N4)) (8.3-66 ng Pho7 DBD): 2
3 | TTTCCTTCGGACAAACAAATCAGT (double strand) [tgp1 24-bp Mut2 (TT to AA)] | 45 | –
4 | TTTCCTTCGGACATTCAAATCAGT (double strand) [tgp1 24-bp WT] | 81 | –
5 | TTTCCTTCGGACATTCTTATCAGT (double strand) [tgp1 24-bp Mut3 (AA to TT)] | 23 | –
